We go through 125 sequences from the supplement of paper PMC9112550, “Optimization of the antimicrobial peptide Bac7 by deep mutational scanning” (BMC Biology, 2022).

The subject of the data set is Escherichia coli TOP10. Kind of data set: shrunken log2 fold change of peptide-encoding DNA abundance (4.5 h post-induction vs induction); higher = less antimicrobial activity (less host growth inhibition). The settings on record: time post-induction: 4.5 h; library: site-saturation at positions 5, 18, 19, 20.
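Further: peptides expressed intracellularly from a pBAD plasmid library in pooled LB shake-flask culture, induced with 0.3% L-arabinose, DNA abundance read by NGS, three biological replicates, DESeq2 with apeglm shrinkage.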

Regarding RRIRFRPPRLPRPRPRPGPWPRP, the “shrunken log2 fold change” value was 0.216.
The same measure for RRIRSRPPRLPRPRPRPVYQPRP: -1.16.
For the sequence RRIRWRPPRLPRPRPRPPYPPRP, the “shrunken log2 fold change” value came out at 0.0905.
On to RRIRFRPPRLPRPRPRPKSPPRP, for which the “shrunken log2 fold change” value is -0.143.
As to RRIRYRPPRLPRPRPRPCHQPRP, the “shrunken log2 fold change” value was -0.00822.
As to RRIRQRPPRLPRPRPRPGILPRP, the “shrunken log2 fold change” value was -0.181.
Consider RRIRMRPPRLPRPRPRPTTVPRP, for which the “shrunken log2 fold change” value was determined as 0.376.
On to RRIRCRPPRLPRPRPRPEDRPRP, for which the “shrunken log2 fold change” value is -0.0137.
Turning to RRIRVRPPRLPRPRPRPMARPRP, the “shrunken log2 fold change” value was 0.0955.
Regarding RRIRFRPPRLPRPRPRPTDPPRP, the “shrunken log2 fold change” value is -0.0408.
Take RRIRVRPPRLPRPRPRPSNHPRP: the “shrunken log2 fold change” value is -0.636.
Under RRIRRRPPRLPRPRPRPKYLPRP stands -0.042.
Turning to RRIRGRPPRLPRPRPRPKAVPRP, the “shrunken log2 fold change” value stood at 0.89.
Turning to RRIRERPPRLPRPRPRPAPKPRP, the “shrunken log2 fold change” value stood at 0.678.
Take RRIRHRPPRLPRPRPRPPIAPRP: the “shrunken log2 fold change” value is -0.0868.
The same measure for RRIRVRPPRLPRPRPRPGKDPRP: 0.114; for RRIRYRPPRLPRPRPRPYMQPRP: -0.117.
RRIRMRPPRLPRPRPRPPELPRP: the “shrunken log2 fold change” value was 0.372.
Consider RRIRFRPPRLPRPRPRPMVMPRP, for which the “shrunken log2 fold change” value is -0.696.
Turning to RRIRQRPPRLPRPRPRPQMGPRP, the “shrunken log2 fold change” value was -0.553.
The same measure for RRIRKRPPRLPRPRPRPHRIPRP: 0.00291; for RRIRGRPPRLPRPRPRPDMNPRP: 1.35; for RRIRWRPPRLPRPRPRPRPLPRP: 0.158.
Turning to RRIRQRPPRLPRPRPRPLNHPRP, the “shrunken log2 fold change” value came to 0.133.
Turning to RRIRHRPPRLPRPRPRPMNIPRP, the “shrunken log2 fold change” value is -0.214.
For RRIRRRPPRLPRPRPRPAPLPRP, the “shrunken log2 fold change” value stood at 0.857.
As for RRIRTRPPRLPRPRPRPGKHPRP, the “shrunken log2 fold change” value was -0.803.
Turning to RRIRIRPPRLPRPRPRPYPKPRP, the “shrunken log2 fold change” value was -0.0684.
Turning to RRIRNRPPRLPRPRPRPCITPRP, the “shrunken log2 fold change” value was -0.049.
For the sequence RRIRYRPPRLPRPRPRPFLCPRP, the “shrunken log2 fold change” value was -1.19.
Consider RRIRIRPPRLPRPRPRPQYYPRP, for which the “shrunken log2 fold change” value was -1.28.
The same measure for RRIRFRPPRLPRPRPRPHIQPRP: -0.594; for RRIRPRPPRLPRPRPRPEYWPRP: -0.035; for RRIRYRPPRLPRPRPRPPRSPRP: -0.148.
RRIRKRPPRLPRPRPRPFGYPRP: the “shrunken log2 fold change” value is -0.0856.
Regarding RRIRDRPPRLPRPRPRPHWDPRP, the “shrunken log2 fold change” value is -0.0788.
Take RRIRMRPPRLPRPRPRPYEVPRP: the “shrunken log2 fold change” value was -0.00992.
Turning to RRIRTRPPRLPRPRPRPNELPRP, the “shrunken log2 fold change” value was -0.0115.
The same measure for RRIRIRPPRLPRPRPRPYNPPRP: -0.276; for RRIRRRPPRLPRPRPRPRIMPRP: 0.0517; for RRIRHRPPRLPRPRPRPGIFPRP: -0.24.
With RRIRIRPPRLPRPRPRPRQQPRP, the “shrunken log2 fold change” value is 0.0393.
The same measure for RRIRERPPRLPRPRPRPFPTPRP: -0.573; for RRIRVRPPRLPRPRPRPPHCPRP: 0.178.
On to RRIRHRPPRLPRPRPRPQRVPRP, for which the “shrunken log2 fold change” value is -0.139.
Consider RRIRSRPPRLPRPRPRPVCAPRP, for which the “shrunken log2 fold change” value was found to be 0.386.
For the sequence RRIRERPPRLPRPRPRPVFLPRP, the “shrunken log2 fold change” value is -0.474.
On to RRIRRRPPRLPRPRPRPFNEPRP, for which the “shrunken log2 fold change” value was -0.846.
Regarding RRIRRRPPRLPRPRPRPTKAPRP, the “shrunken log2 fold change” value stood at 0.372.
Regarding RRIRKRPPRLPRPRPRPLRVPRP, the “shrunken log2 fold change” value amounted to 1.04.
Take RRIRVRPPRLPRPRPRPMGAPRP: the “shrunken log2 fold change” value was determined as 0.813.
RRIRYRPPRLPRPRPRPQMDPRP: the “shrunken log2 fold change” value was -0.801.
As for RRIRMRPPRLPRPRPRPAPPPRP, the “shrunken log2 fold change” value was determined as 1.43.
As for RRIRMRPPRLPRPRPRPYCVPRP, the “shrunken log2 fold change” value came to 0.117.
On to RRIRKRPPRLPRPRPRPTVPPRP, for which the “shrunken log2 fold change” value was found to be 0.283.
Regarding RRIRTRPPRLPRPRPRPRRHPRP, the “shrunken log2 fold change” value was 0.0424.
The same measure for RRIRLRPPRLPRPRPRPSEGPRP: -0.501.
For the sequence RRIRKRPPRLPRPRPRPQLIPRP, the “shrunken log2 fold change” value was 0.0871.
As to RRIRPRPPRLPRPRPRPTSWPRP, the “shrunken log2 fold change” value is 0.769.
Under RRIRYRPPRLPRPRPRPWNDPRP stands -0.0728; under RRIRCRPPRLPRPRPRPCPIPRP, -0.52.
Consider RRIRGRPPRLPRPRPRPYVHPRP, for which the “shrunken log2 fold change” value is -0.142.
In the case of RRIRCRPPRLPRPRPRPIKMPRP, the “shrunken log2 fold change” value is -0.185.
Turning to RRIRVRPPRLPRPRPRPPVKPRP, the “shrunken log2 fold change” value is -0.112.
In the case of RRIRCRPPRLPRPRPRPHAQPRP, the “shrunken log2 fold change” value is 0.0778.
Under RRIRIRPPRLPRPRPRPQYAPRP stands 0.0303; under RRIRYRPPRLPRPRPRPTTPPRP, -0.437; under RRIRRRPPRLPRPRPRPGGCPRP, 0.325.
Under RRIRGRPPRLPRPRPRPDQDPRP stands 1.06.
In the case of RRIRMRPPRLPRPRPRPQHLPRP, the “shrunken log2 fold change” value is -0.344.
On to RRIRPRPPRLPRPRPRPNIYPRP, for which the “shrunken log2 fold change” value is -0.69.
Regarding RRIRIRPPRLPRPRPRPPWVPRP, the “shrunken log2 fold change” value amounted to 0.0988.
For RRIRWRPPRLPRPRPRPCTFPRP, the “shrunken log2 fold change” value was -0.72.
RRIRNRPPRLPRPRPRPMDQPRP: the “shrunken log2 fold change” value was -0.01.
RRIRIRPPRLPRPRPRPHKYPRP: the “shrunken log2 fold change” value is -1.08.
As to RRIRYRPPRLPRPRPRPWSPPRP, the “shrunken log2 fold change” value is -0.848.
Consider RRIRKRPPRLPRPRPRPHCHPRP, for which the “shrunken log2 fold change” value is 0.0986.
In the case of RRIRQRPPRLPRPRPRPSWEPRP, the “shrunken log2 fold change” value is -0.141.
Take RRIRTRPPRLPRPRPRPRNLPRP: the “shrunken log2 fold change” value was -0.218.
Consider RRIRHRPPRLPRPRPRPISAPRP, for which the “shrunken log2 fold change” value was -0.0622.
Under RRIRGRPPRLPRPRPRPAPMPRP stands 1.1; under RRIRMRPPRLPRPRPRPDQPPRP, -0.0102; under RRIRYRPPRLPRPRPRPKIIPRP, -1.21.
Under RRIRWRPPRLPRPRPRPMHRPRP stands -0.0497; under RRIRHRPPRLPRPRPRPDWDPRP, -0.0204; under RRIRDRPPRLPRPRPRPVPTPRP, 0.247.
Take RRIRYRPPRLPRPRPRPNCKPRP: the “shrunken log2 fold change” value was -0.504.
For the sequence RRIRYRPPRLPRPRPRPDMRPRP, the “shrunken log2 fold change” value was -0.00508.
For RRIRVRPPRLPRPRPRPWFAPRP, the “shrunken log2 fold change” value was -0.191.
The same measure for RRIRHRPPRLPRPRPRPELFPRP: 0.458; for RRIRQRPPRLPRPRPRPRNGPRP: -0.0342.
Consider RRIRARPPRLPRPRPRPVYPPRP, for which the “shrunken log2 fold change” value was 0.0412.
RRIRVRPPRLPRPRPRPGWTPRP: the “shrunken log2 fold change” value worked out at 0.202.
As for RRIRQRPPRLPRPRPRPTHGPRP, the “shrunken log2 fold change” value worked out at 0.0759.
Consider RRIRARPPRLPRPRPRPMKAPRP, for which the “shrunken log2 fold change” value is 0.0595.
Under RRIRVRPPRLPRPRPRPTTIPRP stands -0.0865.
For the sequence RRIRDRPPRLPRPRPRPKRPPRP, the “shrunken log2 fold change” value turned out to be 0.449.
Turning to RRIRLRPPRLPRPRPRPLYPPRP, the “shrunken log2 fold change” value is -0.12.
For RRIRERPPRLPRPRPRPKWNPRP, the “shrunken log2 fold change” value was -0.447.
As for RRIRNRPPRLPRPRPRPFWEPRP, the “shrunken log2 fold change” value is -0.372.
Under RRIRCRPPRLPRPRPRPHFTPRP stands -0.677.
For RRIRTRPPRLPRPRPRPPQSPRP, the “shrunken log2 fold change” value turned out to be 0.441.
Under RRIRGRPPRLPRPRPRPTHRPRP stands 0.454; under RRIRPRPPRLPRPRPRPIFIPRP, -0.389; under RRIRSRPPRLPRPRPRPEPRPRP, 0.586.
For the sequence RRIRIRPPRLPRPRPRPFKPPRP, the “shrunken log2 fold change” value is -0.395.
The same measure for RRIRQRPPRLPRPRPRPAGWPRP: 0.808; for RRIRIRPPRLPRPRPRPQFCPRP: -0.32.
Turning to RRIRYRPPRLPRPRPRPQDEPRP, the “shrunken log2 fold change” value is -0.0312.
For RRIRQRPPRLPRPRPRPWMCPRP, the “shrunken log2 fold change” value is 0.00702.
For the sequence RRIRTRPPRLPRPRPRPTKRPRP, the “shrunken log2 fold change” value turned out to be 0.139.
As for RRIRWRPPRLPRPRPRPCILPRP, the “shrunken log2 fold change” value was -0.39.
As to RRIRHRPPRLPRPRPRPCYRPRP, the “shrunken log2 fold change” value is -0.121.
Consider RRIRHRPPRLPRPRPRPYNMPRP, for which the “shrunken log2 fold change” value is -0.186.
On to RRIRYRPPRLPRPRPRPKDKPRP, for which the “shrunken log2 fold change” value was -0.536.
Turning to RRIRHRPPRLPRPRPRPKDLPRP, the “shrunken log2 fold change” value is -0.0584.
For the sequence RRIRKRPPRLPRPRPRPNSSPRP, the “shrunken log2 fold change” value was -0.0248.
On to RRIRPRPPRLPRPRPRPQPIPRP, for which the “shrunken log2 fold change” value is 0.0388.
Consider RRIRGRPPRLPRPRPRPDALPRP, for which the “shrunken log2 fold change” value was 0.889.
For the sequence RRIRTRPPRLPRPRPRPLLKPRP, the “shrunken log2 fold change” value is -0.336.
The same measure for RRIRSRPPRLPRPRPRPDWWPRP: -0.0873; for RRIRARPPRLPRPRPRPFCRPRP: 0.211; for RRIRNRPPRLPRPRPRPCHRPRP: -0.139.
For the sequence RRIRRRPPRLPRPRPRPRSMPRP, the “shrunken log2 fold change” value amounted to 0.468.
Under RRIRPRPPRLPRPRPRPWVTPRP stands -0.00388.
